Patent US20160200763
Where a chain is given by its changes, count along the chain named. Names may count otherwise.

T1: pL807
T1 chain: KEAPPSPPQSP

T2: L807
T2 chain: KEAPPSPPQSP

B1: Bacterially expressed Purified GSK-3β Wild-Type (WT) (protein)
chain: MSGRPRTTSFAESCKPVQQPSAFGSMKVSRDKDGSKVTTVVATPGQGPDRPQEVSYTDTKVIGNGSFGVVYQAKLCDSGELVAIKKVLQDKRFKNRELQIMRKLDHCNIVRLRYFFYSSGEKKDEVYLNLVLDYVPETVYRVARHYSRAKQTLPVIYVKLYMYQLFRSLAYIHSFGICHRDIKPQNLLLDPDTAVLKLCDFGSAKQLVRGEPNVSYICSRYYRAPELIFGATDYTSSIDVWSAGCVLAELLLGQPIFPGDSGVDQLVEIIKVLGTPTREQIREMNPNYTEFKFPQIKAHPWTKDSSGTGHFTSGVRVFRPRTPPEAIALCSRLLEYTPTARLTPLEACAHSFFDELRDPNVKLPNGRDTPALFNFTTQELSSNPPLATILIPPHARIQAAASTPTNATAASDANTGDRGQTNNAASASASNST
B2: GSK-3β F93A mutant (in which Phe93 was replaced by alanine) (protein)
chain: B1 chain with F93A

Key:
pL807 = target: T1, pL807
L807 = target: T2, L807

Protein | peptide phosphorylation by GSK-3β (in vitro kinase assay, 32P-γ-ATP) (pL807) | peptide phosphorylation by GSK-3β (in vitro kinase assay, 32P-γ-ATP) (L807) | peptide phosphorylation by WT GSK-3β (in vitro kinase assay) (L807) | peptide phosphorylation by the F93A mutant (in vitro kinase assay) (L807)
B1 | pL807 is not a substrate of GSK-3 | shows that L807 is a substrate of GSK-3 | L807 is phosphorylated by both GSK-3 and F93A | –
B2 | – | – | – | L807 is phosphorylated by both GSK-3 and F93A
